# Earlier results in PMC3791513.
# Target: GPR77 (Homo sapiens) (UniProt Q9P296)
# Sequence (Q9P296 whole entry): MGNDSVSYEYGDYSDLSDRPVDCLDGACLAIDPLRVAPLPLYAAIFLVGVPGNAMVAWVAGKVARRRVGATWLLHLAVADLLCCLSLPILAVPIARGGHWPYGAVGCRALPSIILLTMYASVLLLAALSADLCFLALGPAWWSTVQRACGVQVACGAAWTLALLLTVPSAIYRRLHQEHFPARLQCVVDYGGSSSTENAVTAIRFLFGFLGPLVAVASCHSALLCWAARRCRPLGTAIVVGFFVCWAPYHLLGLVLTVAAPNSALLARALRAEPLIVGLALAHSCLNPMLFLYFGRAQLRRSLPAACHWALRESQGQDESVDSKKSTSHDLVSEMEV
# Chain of complement anaphylatoxin C5a C5a (P01031 675-754): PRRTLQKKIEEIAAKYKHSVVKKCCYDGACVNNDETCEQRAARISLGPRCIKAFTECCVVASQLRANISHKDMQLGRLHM
substance,measurement,value
complement anaphylatoxin C5a C5a (from UniProt P01031),Kd,2.5 nM
